This experiment concerns the target His-Src SH3 (UniProt P12931 84-145). Kind of experiment: SPR. (In general: In SPR one partner is held on a chip, and binding of the other changes the refractive index at the surface.)

B1: RLP1 peptide (peptide)
peptide: RKLPPRPSK
For B1, binding was characterised by a dissociation constant (Kd) of 9.97 µM.

The term Kd denotes the free concentration of one partner at which half of the binding sites on the other are occupied at equilibrium, for simple one-to-one binding. Low readings indicate higher affinity, high ones lower affinity.

These data come from publication PMC8895158 (2022).
